# Tests used:
# Assay in all cases: cell-based or functional assay
# [1] = biological target: HIV-1 Env of pseudovirus 191084 B7-19 (HIV-1)
# [2] = biological target: HIV-1 envelope glycoprotein of pseudovirus YU.2 (clade B) (HIV-1) (UniProt P35961)
# [3] = biological target: HIV-1 envelope glycoprotein of pseudovirus CAP45.2.00.G3 (clade C) (HIV-1)
# [4] = biological target: HIV-1 envelope of pseudovirus T278-50 (HIV-1)
# [5] = biological target: HIV-1 Env of pseudovirus Q451.e2 (HIV-1)
# [6] = biological target: HIV-1 envelope glycoprotein of pseudovirus HIV-16845-2.22 (clade C) (HIV-1)
# [7] = biological target: HIV-1 envelope of pseudovirus 6545.v4.c1 (HIV-1)
# [8] = biological target: HIV-1 Env of pseudovirus BJOX009000.02.4 (HIV-1)
# [9] = biological target: HIV-1 envelope glycoprotein of pseudovirus Q842.d12 (clade A) (HIV-1)
# [10] = biological target: HIV-1 envelope glycoprotein of pseudovirus CNE17 (clade BC) (HIV-1)
# [11] = biological target: HIV-1 envelope glycoprotein of pseudovirus 3365.v2.c2 (clade A) (HIV-1)
# [12] = biological target: HIV-1 Env of pseudovirus Ce1176_A3 (HIV-1)
# [13] = biological target: HIV-1 envelope of pseudovirus CNE20 (HIV-1)
# [14] = biological target: HIV-1 envelope of pseudovirus 1394C9G1(Rev-) (HIV-1)
# [15] = biological target: HIV-1 envelope glycoprotein of pseudovirus Ce1172_H1 (clade C (T/F)) (HIV-1)
# [16] = biological target: HIV-1 Env of pseudovirus 211-9 (HIV-1)
# [17] = biological target: HIV-1 envelope glycoprotein of pseudovirus 1394C9G1(Rev-) (clade C (T/F)) (HIV-1)
# [18] = biological target: HIV-1 envelope glycoprotein of pseudovirus QH0692.42 (clade B) (HIV-1)
# [19] = biological target: HIV-1 envelope glycoprotein of pseudovirus PVO.4 (clade B) (HIV-1)
# [20] = biological target: HIV-1 envelope glycoprotein of pseudovirus 1054_07_TC4_1499 (clade B (T/F)) (HIV-1)
# [21] = biological target: HIV-1 envelope glycoprotein of pseudovirus T251-18 (clade CRF02_AG) (HIV-1)
# [22] = biological target: HIV-1 envelope glycoprotein of pseudovirus 3817.v2.c59 (clade CD) (HIV-1)
# [23] = biological target: HIV-1 Env of pseudovirus R2184.c04 (HIV-1)
# [24] = biological target: HIV-1 envelope glycoprotein of pseudovirus HIV-16055-2.3 (clade C) (HIV-1)
# [25] = biological target: HIV-1 Env of pseudovirus 6244_13_85_4576 (HIV-1)
# [26] = biological target: HIV-1 envelope glycoprotein of pseudovirus 0260.v5.c36 (clade A) (HIV-1)
# [27] = biological target: HIV-1 Env of pseudovirus X1193_c1 (HIV-1)
# [28] = biological target: HIV-1 envelope glycoprotein of pseudovirus ZM214M.PL15 (clade C) (HIV-1)
# [29] = biological target: HIV-1 Env of pseudovirus C3347.c11 (HIV-1)
# [30] = biological target: HIV-1 envelope glycoprotein of pseudovirus 211-9 (clade CRF02_AG) (HIV-1)
# [31] = biological target: HIV-1 envelope glycoprotein of pseudovirus CNE19 (clade BC) (HIV-1)
# [32] = biological target: HIV-1 envelope of pseudovirus WITO4160.33 (HIV-1)
# [33] = biological target: HIV-1 envelope glycoprotein of pseudovirus 62357_14_D3_4589 (clade B (T/F)) (HIV-1)
# [34] = biological target: HIV-1 envelope glycoprotein of pseudovirus 6952.v1.c20 (clade CD) (HIV-1)
# [35] = biological target: HIV-1 envelope of pseudovirus 6240_08_TA5_4622 (HIV-1)
# [36] = biological target: HIV-1 envelope of pseudovirus PVO.4 (HIV-1)
# [37] = biological target: HIV-1 envelope of pseudovirus 6535.3 (HIV-1)
# [38] = biological target: HIV-1 Env of pseudovirus MS208.A1 (HIV-1)
# [39] = biological target: HIV-1 envelope glycoprotein of pseudovirus RHPA4259.7 (clade B) (HIV-1)
# [40] = biological target: HIV-1 Env of pseudovirus ZM214M.PL15 (HIV-1)
# [41] = biological target: HIV-1 envelope of pseudovirus 6480.v4.c25 (HIV-1)
# [42] = biological target: HIV-1 envelope of pseudovirus CNE19 (HIV-1)
# [43] = biological target: HIV-1 envelope of pseudovirus 0815.v3.c3 (HIV-1)
# [44] = biological target: HIV-1 Env of pseudovirus T250-4 (HIV-1)
# [45] = biological target: HIV-1 Env of pseudovirus P1981_C5_3 (HIV-1)
# [46] = biological target: HIV-1 envelope of pseudovirus CAAN5342.A2 (HIV-1)
# [47] = biological target: HIV-1 envelope of pseudovirus Du422.1 (HIV-1)
# Chain of 10-996 (antibody) (VH): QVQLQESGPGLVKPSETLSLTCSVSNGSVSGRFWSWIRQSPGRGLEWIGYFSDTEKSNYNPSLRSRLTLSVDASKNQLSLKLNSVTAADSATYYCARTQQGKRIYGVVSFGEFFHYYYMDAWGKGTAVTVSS
# Chain of 10-996 (antibody) (VL): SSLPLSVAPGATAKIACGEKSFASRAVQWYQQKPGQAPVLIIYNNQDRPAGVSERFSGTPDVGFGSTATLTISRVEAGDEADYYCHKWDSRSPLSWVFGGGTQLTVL
# Chain of 10-1074 (antibody) (VH): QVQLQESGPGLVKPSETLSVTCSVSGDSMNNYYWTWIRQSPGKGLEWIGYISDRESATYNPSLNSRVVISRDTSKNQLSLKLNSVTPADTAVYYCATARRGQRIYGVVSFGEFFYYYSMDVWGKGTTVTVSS
# Chain of 10-1074 (antibody) (V domain): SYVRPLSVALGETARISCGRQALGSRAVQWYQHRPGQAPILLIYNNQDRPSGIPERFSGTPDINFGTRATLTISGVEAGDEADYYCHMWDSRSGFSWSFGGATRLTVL
# Chain of HIV-1 envelope glycoprotein of pseudovirus YU.2 (clade B) (HIV-1) (P35961 32-843): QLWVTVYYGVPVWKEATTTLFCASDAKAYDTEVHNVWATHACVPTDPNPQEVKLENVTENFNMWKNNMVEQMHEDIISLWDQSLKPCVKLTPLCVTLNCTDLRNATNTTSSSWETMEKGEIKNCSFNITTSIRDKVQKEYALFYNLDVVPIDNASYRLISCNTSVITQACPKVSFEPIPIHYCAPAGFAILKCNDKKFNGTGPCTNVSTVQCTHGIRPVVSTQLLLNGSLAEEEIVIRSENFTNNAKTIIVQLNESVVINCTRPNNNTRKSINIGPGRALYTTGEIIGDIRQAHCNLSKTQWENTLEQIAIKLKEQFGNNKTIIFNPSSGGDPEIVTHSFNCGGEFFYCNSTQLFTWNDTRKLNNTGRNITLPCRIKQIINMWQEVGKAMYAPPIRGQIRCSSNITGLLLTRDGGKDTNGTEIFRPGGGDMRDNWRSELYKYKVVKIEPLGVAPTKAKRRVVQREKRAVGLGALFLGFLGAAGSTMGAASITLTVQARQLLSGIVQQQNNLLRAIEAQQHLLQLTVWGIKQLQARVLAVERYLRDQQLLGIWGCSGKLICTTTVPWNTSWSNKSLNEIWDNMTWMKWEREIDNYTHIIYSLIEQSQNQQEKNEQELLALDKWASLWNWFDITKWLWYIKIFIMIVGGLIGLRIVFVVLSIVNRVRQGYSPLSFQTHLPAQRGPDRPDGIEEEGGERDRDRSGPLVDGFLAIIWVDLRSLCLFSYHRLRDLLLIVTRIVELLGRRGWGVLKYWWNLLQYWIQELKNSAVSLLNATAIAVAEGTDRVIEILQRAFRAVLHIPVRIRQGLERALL
substance,measurement,setting,value
PGT121 (antibody),IC80 (TZM-bl neutralization),[1],0.128 µg/mL
same,IC50 in the TZM-bl neutralization assay,[2],0.356 µg/mL
same,IC50 in the TZM-bl neutralization assay,[3],6.54 µg/mL
same,IC50 (TZM-bl neutralization),[4],> 50 µg/mL
same,IC80 (TZM-bl neutralization),[5],> 50 µg/mL
same,IC50 in the TZM-bl neutralization assay,[6],> 50 µg/mL
same,IC50 (TZM-bl neutralization),[7],> 50 µg/mL
same,IC80 (TZM-bl neutralization),[8],37.3 µg/mL
same,IC50 in the TZM-bl neutralization assay,[9],0.074 µg/mL
same,IC50 in the TZM-bl neutralization assay,[10],> 50 µg/mL
same,IC50 in the TZM-bl neutralization assay,[11],7.35 µg/mL
same,IC80 (TZM-bl neutralization),[12],0.058 µg/mL
same,IC50 (TZM-bl neutralization),[13],0.002 µg/mL
same,IC50 (TZM-bl neutralization),[14],0.486 µg/mL
same,IC50 in the TZM-bl neutralization assay,[15],0.088 µg/mL
same,IC80 (TZM-bl neutralization),[16],8.84 µg/mL
same,IC50 in the TZM-bl neutralization assay,[17],3.37 µg/mL
same,IC50 in the TZM-bl neutralization assay,[18],8.54 µg/mL
same,IC50 in the TZM-bl neutralization assay,[19],0.945 µg/mL
same,IC50 in the TZM-bl neutralization assay,[20],0.696 µg/mL
same,IC50 in the TZM-bl neutralization assay,[21],> 50 µg/mL
same,IC50 in the TZM-bl neutralization assay,[22],> 50 µg/mL
same,IC80 (TZM-bl neutralization),[23],> 50 µg/mL
same,IC50 in the TZM-bl neutralization assay,[24],4.29 µg/mL
same,IC80 (TZM-bl neutralization),[25],1.88 µg/mL
same,IC50 in the TZM-bl neutralization assay,[26],0.152 µg/mL
same,IC80 (TZM-bl neutralization),[27],0.202 µg/mL
same,IC50 in the TZM-bl neutralization assay,[28],3.15 µg/mL
same,IC80 (TZM-bl neutralization),[29],> 50 µg/mL
same,IC50 in the TZM-bl neutralization assay,[30],8.84 µg/mL
same,IC50 in the TZM-bl neutralization assay,[31],0.189 µg/mL
same,IC50 (TZM-bl neutralization),[32],0.459 µg/mL
same,IC50 in the TZM-bl neutralization assay,[33],45.6 µg/mL
same,IC50 in the TZM-bl neutralization assay,[34],0.605 µg/mL
same,IC50 (TZM-bl neutralization),[35],0.128 µg/mL
same,IC50 (TZM-bl neutralization),[36],0.131 µg/mL
same,IC50 (TZM-bl neutralization),[37],0.008 µg/mL
same,IC80 (TZM-bl neutralization),[38],> 50 µg/mL
same,IC50 in the TZM-bl neutralization assay,[39],0.054 µg/mL
same,IC80 (TZM-bl neutralization),[40],3.15 µg/mL
same,IC50 (TZM-bl neutralization),[41],0.017 µg/mL
10-996 (antibody),IC80 (TZM-bl neutralization),[1],0.144 µg/mL
same,IC50 (TZM-bl neutralization),[4],14 µg/mL
same,IC80 (TZM-bl neutralization),[5],> 50 µg/mL
same,IC50 (TZM-bl neutralization),[7],> 50 µg/mL
same,IC50 (TZM-bl neutralization),[42],3.45 µg/mL
same,IC80 (TZM-bl neutralization),[12],0.151 µg/mL
same,IC50 (TZM-bl neutralization),[13],< 0.001 µg/mL
same,IC50 (TZM-bl neutralization),[14],0.086 µg/mL
same,IC80 (TZM-bl neutralization),[16],3.85 µg/mL
same,IC50 (TZM-bl neutralization),[43],0.061 µg/mL
same,IC80 (TZM-bl neutralization),[44],0.005 µg/mL
same,IC80 (TZM-bl neutralization),[45],0.018 µg/mL
same,IC80 (TZM-bl neutralization),[23],> 50 µg/mL
same,IC80 (TZM-bl neutralization),[25],1.3 µg/mL
same,IC50 (TZM-bl neutralization),[46],0.013 µg/mL
same,IC80 (TZM-bl neutralization),[27],0.482 µg/mL
same,IC80 (TZM-bl neutralization),[29],> 50 µg/mL
same,IC50 (TZM-bl neutralization),[47],0.056 µg/mL
same,IC50 (TZM-bl neutralization),[32],0.538 µg/mL
same,IC50 (TZM-bl neutralization),[35],0.095 µg/mL
same,IC50 (TZM-bl neutralization),[36],0.186 µg/mL
same,IC50 (TZM-bl neutralization),[37],0.017 µg/mL
same,IC80 (TZM-bl neutralization),[38],> 50 µg/mL
same,IC80 (TZM-bl neutralization),[40],3.25 µg/mL
same,IC50 (TZM-bl neutralization),[41],0.01 µg/mL
10-1074 (antibody),IC80 (TZM-bl neutralization),[1],0.128 µg/mL
same,IC50 in the TZM-bl neutralization assay,[2],0.398 µg/mL
same,IC50 in the TZM-bl neutralization assay,[3],> 50 µg/mL
same,IC50 (TZM-bl neutralization),[4],2.15 µg/mL
same,IC80 (TZM-bl neutralization),[5],> 50 µg/mL
same,IC50 in the TZM-bl neutralization assay,[6],5.83 µg/mL
same,IC50 (TZM-bl neutralization),[7],> 50 µg/mL
same,IC80 (TZM-bl neutralization),[8],> 50 µg/mL
same,IC50 in the TZM-bl neutralization assay,[9],> 50 µg/mL
same,IC50 in the TZM-bl neutralization assay,[10],13.3 µg/mL
same,IC50 in the TZM-bl neutralization assay,[11],0.45 µg/mL
same,IC50 (TZM-bl neutralization),[42],50 µg/mL
same,IC80 (TZM-bl neutralization),[12],0.07 µg/mL
same,IC50 (TZM-bl neutralization),[13],< 0.001 µg/mL
same,IC50 (TZM-bl neutralization),[14],0.05 µg/mL
same,IC50 in the TZM-bl neutralization assay,[15],0.166 µg/mL
same,IC80 (TZM-bl neutralization),[16],0.425 µg/mL
same,IC50 in the TZM-bl neutralization assay,[17],0.191 µg/mL
same,IC50 in the TZM-bl neutralization assay,[18],0.929 µg/mL
same,IC50 (TZM-bl neutralization),[43],0.03 µg/mL
same,IC50 in the TZM-bl neutralization assay,[19],0.36 µg/mL
same,IC50 in the TZM-bl neutralization assay,[20],0.563 µg/mL
same,IC50 in the TZM-bl neutralization assay,[21],7.39 µg/mL
same,IC50 in the TZM-bl neutralization assay,[22],14.9 µg/mL
same,IC80 (TZM-bl neutralization),[44],0.005 µg/mL
same,IC80 (TZM-bl neutralization),[45],0.017 µg/mL
same,IC80 (TZM-bl neutralization),[23],> 50 µg/mL
same,IC50 in the TZM-bl neutralization assay,[24],> 50 µg/mL
same,IC80 (TZM-bl neutralization),[25],0.922 µg/mL
same,IC50 in the TZM-bl neutralization assay,[26],0.16 µg/mL
same,IC50 (TZM-bl neutralization),[46],0.007 µg/mL
same,IC80 (TZM-bl neutralization),[27],0.475 µg/mL
same,IC50 in the TZM-bl neutralization assay,[28],2.37 µg/mL
same,IC80 (TZM-bl neutralization),[29],> 50 µg/mL
same,IC50 in the TZM-bl neutralization assay,[30],0.425 µg/mL
same,IC50 (TZM-bl neutralization),[47],0.045 µg/mL
same,IC50 in the TZM-bl neutralization assay,[31],50 µg/mL
same,IC50 (TZM-bl neutralization),[32],0.185 µg/mL
same,IC50 in the TZM-bl neutralization assay,[33],> 50 µg/mL
same,IC50 in the TZM-bl neutralization assay,[34],0.138 µg/mL
same,IC50 (TZM-bl neutralization),[35],0.068 µg/mL
same,IC50 (TZM-bl neutralization),[36],0.074 µg/mL
same,IC50 (TZM-bl neutralization),[37],0.014 µg/mL
same,IC80 (TZM-bl neutralization),[38],> 50 µg/mL
same,IC50 in the TZM-bl neutralization assay,[39],0.118 µg/mL
same,IC80 (TZM-bl neutralization),[40],2.37 µg/mL
same,IC50 (TZM-bl neutralization),[41],0.009 µg/mL

# — patent US12338277
